Data set [1] deals with MS2 coat protein. As to the kind of experiment: apparent KD of MS2 coat protein, switch ON state; designed switch direction (-1 OFF switch, 1 ON switch): -1; higher = weaker reporter binding. The note with it: FMN input: 0 or 200 uM; Eterna round: R93 (includes R88 designs). An outline of the steps:
(§1)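 Normalised binding curves from single clusters were fitted, and the median fit for each design is given as apparent KD. The clusters held designed RNA switches transcribed on-chip from Illumina sequencing clusters. These were titrated with SNAP-549-labelled MS2 coat protein (twofold steps from 0.7 or 1.5 nM to 3 µM, 0.8–1.5 h to 10–20 min per step) in 100 mM Tris-HCl pH 7.5, 80 mM KCl, 4 mM MgCl2, without or with constant ligand.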

The subject of data set [2] is MS2 coat protein. As to the kind of experiment: apparent KD of MS2 coat protein, switch OFF state (with FMN for OFF switches, without FMN for ON switches); designed switch direction (-1 OFF switch, 1 ON switch): -1; higher = weaker reporter binding. The note with it: FMN input: 0 or 200 uM; Eterna round: R93 (includes R88 designs). An outline of the steps: as §1

Turning to “AAAAAGCGAGGAUAUACAUGAGGAUCACCCAUGUAAAAAAAAAAAAAGGGAAAAAAAAGUAGAAGGCGCAAAAA [Sekhemraneferkhau Wepwawetemsaf]”, the “apparent KD of MS2 coat protein” value amounted to 43.2 nM in data set [1] and 48.7 nM in data set [2].
Turning to “AAAAAGCGAGGAUAUACAUGAGGAUCACCCAUGUCAAAAAAAUAGAAAAAAAUAAAAAGUAGAAGGCGCAAAAA [Ex 3 #1]”, the entries for the “apparent KD of MS2 coat protein” value in data set [1] and in data set [2] were 75.8 nM and 63.6 nM, respectively.
The corresponding values for “AAAAAGGCAGGAUAUACAUGAGGAUCACCCAUGUAAAGAAAGAAAGAAGAAAGGGAAAGUAGAAGGGCCAAAAA [Ex3 sub 1]” are 34.4 nM and 41.2 nM.
The corresponding values for “AAAAAGGCAGGAUAUACAUGAGGAUCACCCAUGUAGUUGACAAAAAAGAGUCAACAGUGUAGAAGGGCCAAAAA [Exclusion3-cac1]” are 18.1 nM and 22.1 nM.
Take “AAAAAGGCAGGAUAUACAUGAGGAUCACCCAUGUUAAAAAAAAAAAAAAAAAAAAAGUGUAGAAGGGCCAAAAA [Default title]”: the figures for the “apparent KD of MS2 coat protein” value in data set [1] and in data set [2] were 37.4 nM and 47.6 nM, respectively.
The corresponding values for “AAAAAGGCAGGAUAUACGAAACAGGGAAACCUGAAAGGGAAACAUGAGGAUCACCCAUGUAGAAGGGCCAAGAA [Clint Eastwood 64% 2]” are 48.3 nM and 82 nM.
In the case of “AAAAAGGGAGGAUAUACAGGAGGUAAGGUCAAAAAAAAAAAACAUGAGGAUCACCCAUGUAGAAGGUUUAAAAA [Ecls2-V]”, the figures for the “apparent KD of MS2 coat protein” value in data set [1] and in data set [2] were 25.8 nM and 31 nM, respectively.
For “AAAAAGGGAGGAUAUACAUGAGGAUCACCCAUGUAAAAAAUCGCGGGAGGGAGGGAAGGUAGAAGGCCCAAAAA [Excls3-V]” the same measures were 20.1 nM and 15.5 nM.
The corresponding values for “AAAAAGGGAGGAUAUACAUGAGGAUCACCCAUGUAAAACAAAAAAACAAAAAAAAAAAGUAGAAGGCCCAAAAA [Default title]” are 30 nM and 24.6 nM.
For “AAAAAGGUAGGAUAUACAUGAGGAUCACCCAUGUAAAAAAACGCAGAAAAAAACAAUUGUAGAAGGGCCAAAAA [Ex3 Malc#6]” the same measures were 15.9 nM and 10.6 nM.
For the sequence “AAAAAGUAAGGAUAUCUGGAUAGGAAAAAGAAAACCUAUCCAGAGAAGGUACAUGAGGAUCACCCAUGUAAAAA [Opal 30]”, the “apparent KD of MS2 coat protein” value was 20.8 nM in data set [1] and 14.1 nM in data set [2].
In the case of “AAAAAGUGAGGAUAUACAUGAGGAUCACCCAUGUGAAAGUCGAAAAAAAAGACAAAAAGUAGAAGGCACAAAAA [Fiskers Exclusion 3 D2]”, the figures for the “apparent KD of MS2 coat protein” value in data set [1] and in data set [2] were 22.7 nM and 30.3 nM, respectively.
For “AAAAAGUGAGGAUAUACAUGAGGAUCACCCAUGUGUAUAAAAAAUUACACAAAAGCAUGUAGAAGGCACUAAAA [JL In the Red]” the same measures were 37 nM and 143 nM.
Regarding “AAAAAGUGAGGAUAUACGAUGUGGAGUAGACACAACCAGACGUAGAAGGCACAUGAGGAUCACCCAUGUCCAAA [EX4 Malc#17]”, the “apparent KD of MS2 coat protein” value in data set [1] is 21 nM; in data set [2], 28.6 nM.
As for “AAAAAGUGAGGAUAUACGCUGAAGAGAAGACACAACCAGGCGUAGAAGGCACAUGAGGAUCACCCAUGUACAAA [Ex4 Malc#8]”, the “apparent KD of MS2 coat protein” value in data set [1] stood at 28.2 nM; in data set [2], 27.3 nM.
For “AAAAAGUGAGGAUAUACGUUGAAAAAAAAAAAAAAAAAGCGGUAGAAGGCACAUGAGGAUCACCCAUGUAAAAA [Ex4 Malc#4]” the same measures were 32.7 nM and 22.5 nM.
Turning to “AAAAAGUGAGGAUAUUCGGAAGGGAAAGCGCAAACCCAACCGAAGAAGGCACAUGAGGAUCACCCAUGUAAAAA [Ecls4-III 65% - Early G segment 1]”, the “apparent KD of MS2 coat protein” value in data set [1] stood at 30.6 nM; in data set [2] it was 35.2 nM.
As for “AAAAAGUUAGGAUAUACAUGAGGAUCACCCAUGUGCACGUAUGGAGAAUAUGGUGGUAGUAGAAGGGACAAAAA [EX2 Malc#18]”, the entries for the “apparent KD of MS2 coat protein” value in data set [1] and in data set [2] were 55.3 nM and 66.6 nM, respectively.
For “AAAAAUGGAGGAUAUACAUGAGGAUCACCCAUGUGAAACAAAACAAAAAACAAAAAAAGUAGAAGGCCAAAAAA [Gilly Gone Silly 3 - Jieux - Exclusion 3]” the same measures were 31.2 nM and 40.1 nM.
Take “AAAAAUGGAGGAUAUACAUGAGGAUCACCCAUGUGUAACUAUACUAAGCACAAAAAAAGUAGAAGGCCAAAAAA [Gilly Gone Silly 9 - Jieux - Exclusion 3]”: the “apparent KD of MS2 coat protein” value in data set [1] stood at 53.5 nM; in data set [2], 57.4 nM.
The corresponding values for “AAAAAUGGAGGAUAUACAUGAGGAUCACCCAUGUGUGGCCAUACUAUGUGGUCGUCAGGUAGAAGGCCAAAAAA [Gilly Gone Silly 23 - Jieux - Exclusion 3]” are 24.9 nM and 178 nM.
The corresponding values for “AAAAAUUGAGGAUAUACGAACAUGUCGAAAGACGUGAAGGGACAUGAGGAUCACCCAUGUAGAAGGCGAAAGAA [Mat - Exclusion 2 - JL mod - D67]” are 33.6 nM and 18.2 nM.
“AAAACAAAAGGAUAUAAAAACAAAAGUCAGGAUAUAGGAAACUAGAAGGGACAUGAGGAUCACCCAUGUAAAAC [Meechl Ex4 R2 m3]”: the “apparent KD of MS2 coat protein” value turned out to be 55.9 nM in data set [1] and 44.5 nM in data set [2].
For “AAAACGCUAGGAUAUACAAAAAAAAAGGGAAAAAAAAAGGGACAUGAGGAUCACCCAUGUAGAAGGAGCAAAAA [Diamond 87]” the same measures were 68.5 nM and 108 nM.
The corresponding values for “AAAACGGCAGGAUAUACAGAUGAGAACUCGACCGAAAAAAAACAUGAGGAUCACCCAUGUAGAAGGGCCAAAAA [Ex2 Malc#6]” are 30.1 nM and 61.9 nM.
“AAAACGGCAGGAUAUACAGAUGAGAUCUCGACCGAAAAAAAACAUGAGGAUCACCCAUGUAGAAGGGCCAAAAA [Ex2 Malc#5]”: the figures for the “apparent KD of MS2 coat protein” value in data set [1] and in data set [2] were 30.1 nM and 60.9 nM, respectively.
For “AAAACGGCAGGAUAUACAGUUGAGAACUAGACCGAAAAAAAACAUGAGGAUCACCCAUGUAGAAGGGCCAAAAA [Ex2 Malc#8]” the same measures were 28.4 nM and 32.5 nM.
For “AAAACGGUAGGAUAUACAAUUGGGAACUAGACCGAAAAACCACAUGAGGAUCACCCAUGUAGAAGGGCCAAAAA [Ex2 Malc#12]” the same measures were 39.2 nM and 77.6 nM.
For “AAAACGGUAGGAUAUACGAUUUGGAACUAGACCGAGGAACCACAUGAGGAUCACCCAUGUAGAAGGACCAAAAA [EX2 Malc#18]”, the “apparent KD of MS2 coat protein” value in data set [1] turned out to be 11.9 nM; in data set [2] it was 10.7 nM.
The corresponding values for “AAAACGUGAGGAUAUGCACCAAAAAAGGUUUUUCGGGUACGACAUGAGGAUCACCCAUGUAGAAGGCACGAAAA [Frodo Flailing 14 - Jieux - Exclusion 2]” are 20.3 nM and 14.1 nM.
For “AAAACUGGAGGAUAUACAUGAGGAUCACCCAUGUGUGGAUGAGCUGUGUCGGCAUCACGUAGAAGGCCACAAAA [Gilly Gone Silly 38 - Jieux - Exclusion 3]” the same measures were 34.4 nM and 53.3 nM.
The corresponding values for “AAAAGGAUAGGAUAUACAUGAGGAUCACCCAUGUGAAUAAAUAAAAGAAAUAAAGAAAGUAGAAGGGUCAAGAA” are 25.8 nM and 22 nM.
In the case of “AAAAGGUGAGGAUAUAGGAAAAUAAAAGAAAAUAAAAGAAACUAGAAGGCACAUGAGGAUCACCCAUGUAAUAA [LROPPY Exclusion 4 - v03_deltaG=3.54 break up the As mixed]”, the “apparent KD of MS2 coat protein” value in data set [1] turned out to be 28.7 nM; in data set [2] it was 23.6 nM.
The corresponding values for “AAAAUACAUGAGGAUCACCCAUGUGAGGAUAUGAGAAAGCAAAUAAAAUAAAGCAAACUCAGAAGGCACAAAAA [EX 1 May 25]” are 39.5 nM and 50.2 nM.
In the case of “AAACAACAUGAGGAUCACCCAUGUUAGGAUAUGAACGAAAUAAAAUAAAAAUAAAAGUUCAGAAGGGACAAAAA [Mat - Exclusion 1 - Eli mod - D21]”, the entries for the “apparent KD of MS2 coat protein” value in data set [1] and in data set [2] were 23.4 nM and 25.6 nM, respectively.
Turning to “AAACGUUGAGGAUAUACGAAAAAGGGUAGGUCAAAAAAAACACAUGAGGAUCACCCAUGUAGAAGGCAACGAAA [Similarities v.1 (13nt loop FMN+)]”, the “apparent KD of MS2 coat protein” value in data set [1] amounted to 71.4 nM; in data set [2], 45.1 nM.
The corresponding values for “AAAGAGUCAGGAUAUUCGUAUAGAGUAGCGCGACUCUAUACGAAGAAGGGACAUGAGGAUCACCCAUGUAAAAA [Ecls4-I]” are 50.6 nM and 51.1 nM.
Consider “AAAGGACGAGGAUAUACAUGAGGAUCACCCAUGUAAAAAACAUAAAAAAAGAACUUAUGUAGAAGGCGUCCAAA [69%, Moding Meechl, 3]”, for which the entries for the “apparent KD of MS2 coat protein” value in data set [1] and in data set [2] were 52.7 nM and 399 nM, respectively.
For “AAAGGACGAGGAUAUACAUGAGGAUCACCCAUGUAAAAAACAUAGUAAAAGAGCUUGUGUAGAAGGCGUCCAAA [Meechl Ex3 2 R2 v8]” the same measures were 94.5 nM and 215 nM.
With “AAAGGACGAGGAUAUACAUGAGGAUCACCCAUGUAAAAAACAUAGUCAAAGGGCUUGUGUAGAAGGCGUCCAAA [Meechl Ex3 2 R2 v11]”, the “apparent KD of MS2 coat protein” value in data set [1] stood at 50.2 nM; in data set [2] it was 229 nM.

(Values after the supplement of paper PMC9170038.)
